The source of these data is patent US20110158954A1, “METHOD FOR PRODUCING GAMMA DELTA T CELL POPULATION” (priority 2007, published 2011).

Assay type in all cases: cell-based
The subject of assay [1] is γδ T cells. As to the kind of experiment: Expansion of γδ T cell population using pamidronate in Yssel's medium (Example 4). Conditions: human PBMCs, stimulant pamidronate 5 μM, IL-2 100 U/mL, immobilized FN fragment, day 14. Here is the method: The expansion of a γδ T cell population was carried out in the same manner as in Example 2-(1), provided that as a basal medium for culture, a medium prepared originally by the applicant having the same composition as an Yssel's medium (hereinafter referred to as “Yssel's medium”) was used in place of IMDM, and that on the fifth day from the initiation of culture, 1 mL of an Yssel's medium containing 10% (v/v) human AB serum was added to each well, to dilute the cell suspension.
The ratio of γδ T cells was analyzed according to flow cytometry for PBMCs prepared in Example 1-(1) and the cells on the fourteenth day from the initiation of culture prepared in Example 4-(1), in the same manner as in Example 1-(4). As a result, the ratio of the γδ T cells was 8.9% for the PBMCs, and the ratio was from 89.7 to 94.3% for the cells on the fourteenth day from the initiation of culture.
The number of live cells was counted according to trypan blue staining method for the cells on the fourteenth day from the initiation of culture prepared in Example 4-(1). The expansion fold of γδ T cells was calculated in comparison of the counted number with the number of γδ T cells at the initiation of culture, in the same manner as in Example 1-(5).

Assay [2] deals with γδ T cells. As to the kind of experiment: Expansion of γδ T cell population cultured using pamidronate (Example 2). Conditions: human PBMCs; IMDM; stimulant pamidronate 5 μM; IL-2 100 U/mL; immobilized FN fragment; day 14. Here is the method:
PBMCs prepared in Example 1-(1) were suspended in IMDM containing 0.25% (w/v) HSA, so as to have a concentration of 2×10^6 cells/mL, to prepare a cell suspension. Thereafter, the above-mentioned cell suspension was added to a plate to which nothing was immobilized or a plate immobilized with H296-H296, prepared in Example 1-(2), in a volume of 1 mL/well each. Pamidronate was added to each well so as to have a final concentration of 5 μM. These plates were incubated at 37° C. in 5% CO2 (zeroth day of culture). On the second day from the initiation of culture, IL-2 was added to each well so as to have a final concentration of 100 U/mL. […]
The ratio of γδ T cells was analyzed according to flow cytometry for PBMCs prepared in Example 1-(1) and the cells on the fourteenth day from the initiation of culture prepared in Example 2-(1), in the same manner as in Example 1-(4). […]
The number of live cells was counted according to trypan blue staining method for the cells on the fourteenth day from the initiation of culture prepared in Example 2-(1). The expansion fold of γδ T cells was calculated in comparison of the counted number with the number of γδ T cells at the initiation of culture, in the same manner as in Example 1-(5).

In assay [3] the test system is γδ T cells. As to the kind of experiment: Expansion of γδ T cell population using zoledronate (Example 5). Conditions: human PBMCs; RPMI 1640, then 10HRPMI+L-Gln; stimulant zoledronate 1 μM for 48 hours; IL-2 100 U/mL; immobilized FN fragment; day 14. Here is the method: The immobilization of an FN fragment was carried out in the same manner as in Example 1-(2), provided that a 6-well cell culture plate was used as a plate to be immobilized, and that an ACD-A solution (pH 5.0) containing H296-H296 (final concentration: 3 μg/mL) was added in a volume of 1.2 mL/well each.
PBMCs prepared in Example 1-(1) were suspended in an RPMI 1640 medium containing 0.25% (w/v) HSA so as to have a concentration of 1×10^6 cells/mL, to prepare a cell suspension. Thereafter, the above cells were added to a plate to which nothing was immobilized, or the plate immobilized with H296-H296 prepared in Example 5-(1), in a volume of 5 mL/well each. […]
The ratio of γδ T cell was analyzed according to flow cytometry for PBMCs prepared in Example 1-(1) and the cells on the fourteenth day from the initiation of culture prepared in Example 5-(2), in the same manner as in Example 1-(4). […]
The number of live cells was counted according to trypan blue staining method for the cells on the fourteenth day from the initiation of culture prepared in Example 5-(2). The expansion fold of γδ T cells was calculated in comparison of the counted number with the number of γδ T cells at the initiation of culture, in the same manner as in Example 1-(5).

Consider “CH-296: polypeptide comprising a cell binding domain, a heparin binding domain and a CS-1 domain of fibronectin (SEQ ID NO: 13)”, for which, in assay [1], the “Expansion Fold of γδ T Cells (Folds) Fourteenth Day of Culture” value is recorded as “×101.4 Folds”.

B1: H296-H296: modified fibronectin fragment in which two H-296's are connected to each other (SEQ ID NO: 22) (protein)
chain: AIPAPTDLKFTQVTPTSLSAQWTPPNVQLTGYRVRVTPKEKTGPMKEINLAPDSSSVVVSGLMVATKYEVSVYALKDTLTSRPAQGVVTTLENVSPPRRARVTDATETTITISWRTKTETITGFQVDAVPANGQTPIQRTIKPDVRSYTITGLQPGTDYKIYLYTLNDNARSSPVVIDASTAIDAPSNLRFLATTPNSLLVSWQPPRARITGYIIKYEKPGSPPREVVPRPRPGVTEATITGLEPGTEYTIYVIALKNNQKSEPLIGRKKTDELPQLVTLPHPNLHGPEILDVPSTAMAIPAPTDLKFTQVTPTSLSAQWTPPNVQLTGYRVRVTPKEKTGPMKEINLAPDSSSVVVSGLMVATKYEVSVYALKDTLTSRPAQGVVTTLENVSPPRRARVTDATETTITISWRTKTETITGFQVDAVPANGQTPIQRTIKPDVRSYTITGLQPGTDYKIYLYTLNDNARSSPVVIDASTAIDAPSNLRFLATTPNSLLVSWQPPRARITGYIIKYEKPGSPPREVVPRPRPGVTEATITGLEPGTEYTIYVIALKNNQKSEPLIGRKKTDELPQLVTLPHPNLHGPEILDVPST
modifications: Fibronectin fragment named H296-H296
As to B1, the “Expansion Fold of γδ T Cells (Folds) Fourteenth Day of Culture” value in assay [2] is given as “×101.8 Folds”; in assay [3] it was “×107.5 Folds”.
